Assay [1] concerns the target His6-MBP-OspR fusion (Kamptonema sp. (formerly Oscillatoria) PCC 6506).
Assay [2] has the same target. This is another data set of the same source.
The target of assay [3] is OspR, untagged (peptide arginase from Kamptonema sp. PCC 6506) (Kamptonema sp. (formerly Oscillatoria) PCC 6506). The experiment in a line: SEC; analytical size exclusion chromatography of OspR in solution (Figure S18); conditions in the SI. On the technique in general: In gel filtration, larger molecules generally elute earlier.

With “His6-OspA precursor protein, unmodified (natural protein)”, the KM of OspR toward unmodified OspA, Michaelis–Menten kinetics by urea detection assay (50 mM TRIS-HCl pH 8.5, 1 mM MnCl2, 25 °C) in assay [1] was found to be 9.01 μM.
As to “His6-OspA^MD, fully cyclized-and-epimerized OspA precursor protein (natural protein)”, the KM of OspR toward cyclized-and-epimerized OspA^MD, Michaelis–Menten kinetics by urea detection assay (50 mM TRIS-HCl pH 8.5, 1 mM MnCl2, 25 °C) in assay [2] amounted to 6.33 μM.
In the case of “OspR, untagged (peptide arginase from Kamptonema sp. PCC 6506) (enzyme)”, the stoichiometry N (usually the number of molecules, sites or subunits per partner or assembly) in assay [3] was 2.

(Values after publication PMC10028609.)
